# According to US20140294898A1 (published 2014):
# Positions of bridges follow the written chain, without caps; N, C: chain ends. Non-standard residues stand in square brackets, D forms with d. Bip = N[C@@H](Cc1ccc(-c2ccccc2)cc1)C(=O)O; 1Nal = N[C@@H](Cc1cccc2ccccc12)C(=O)O; 2Nal = N[C@@H](Cc1ccc2ccccc2c1)C(=O)O; NMeNle = CCCC[C@H](NC)C(=O)O; NMeA = CN[C@@H](C)C(=O)O; Sar = CNCC(=O)O
# B1: Compound No. 26 (peptide)
# peptide: {CH2CO}-[2Nal][NMeA]NPHL[Sar]WSW[NMeNle][NMeNle]RCG-NH2
# modifications: thioether N-14
# SMILES: CCCC[C@H]1C(=O)N(C)[C@@H](CCCC)C(=O)N[C@@H](CCCNC(=N)N)C(=O)N[C@H](C(=O)NCC(N)=O)CSCC(=O)N[C@@H](Cc2ccc3ccccc3c2)C(=O)N(C)[C@@H](C)C(=O)N[C@@H](CC(N)=O)C(=O)N2CCC[C@H]2C(=O)N[C@@H](Cc2c[nH]cn2)C(=O)N[C@@H](CC(C)C)C(=O)N(C)CC(=O)N[C@@H](Cc2c[nH]c3ccccc23)C(=O)N[C@@H](CO)C(=O)N[C@@H](Cc2c[nH]c3ccccc23)C(=O)N1C
# notes: macrocyclic peptide, Formula I series; also called Compound 26
# B2: Compound No. 24 (peptide)
# peptide: {CH2CO}-F[NMeA]NPHL[Sar]WSW[NMeNle][NMeNle]RC-NH2
# modifications: thioether N-14
# SMILES: CCCC[C@H]1C(=O)N(C)[C@@H](CCCC)C(=O)N[C@@H](CCCNC(=N)N)C(=O)N[C@H](C(N)=O)CSCC(=O)N[C@@H](Cc2ccccc2)C(=O)N(C)[C@@H](C)C(=O)N[C@@H](CC(N)=O)C(=O)N2CCC[C@H]2C(=O)N[C@@H](Cc2c[nH]cn2)C(=O)N[C@@H](CC(C)C)C(=O)N(C)CC(=O)N[C@@H](Cc2c[nH]c3ccccc23)C(=O)N[C@@H](CO)C(=O)N[C@@H](Cc2c[nH]c3ccccc23)C(=O)N1C
# notes: macrocyclic peptide, Formula I series; also called Compound 24
# B3: Compound No. 27 (peptide)
# peptide: {CH2CO}-[1Nal][NMeA]NPHL[Sar]WSW[NMeNle][NMeNle]RCG-NH2
# modifications: thioether N-14
# SMILES: CCCC[C@H]1C(=O)N(C)[C@@H](CCCC)C(=O)N[C@@H](CCCNC(=N)N)C(=O)N[C@H](C(=O)NCC(N)=O)CSCC(=O)N[C@@H](Cc2cccc3ccccc23)C(=O)N(C)[C@@H](C)C(=O)N[C@@H](CC(N)=O)C(=O)N2CCC[C@H]2C(=O)N[C@@H](Cc2c[nH]cn2)C(=O)N[C@@H](CC(C)C)C(=O)N(C)CC(=O)N[C@@H](Cc2c[nH]c3ccccc23)C(=O)N[C@@H](CO)C(=O)N[C@@H](Cc2c[nH]c3ccccc23)C(=O)N1C
# notes: macrocyclic peptide, Formula I series; also called Compound 27
# B4: Compound No. 28 (peptide)
# peptide: {CH2CO}-[Bip][NMeA]NPHL[Sar]WSW[NMeNle][NMeNle]RCG-NH2
# modifications: thioether N-14
# SMILES: CCCC[C@H]1C(=O)N(C)[C@@H](CCCC)C(=O)N[C@@H](CCCNC(=N)N)C(=O)N[C@H](C(=O)NCC(N)=O)CSCC(=O)N[C@@H](Cc2ccc(-c3ccccc3)cc2)C(=O)N(C)[C@@H](C)C(=O)N[C@@H](CC(N)=O)C(=O)N2CCC[C@H]2C(=O)N[C@@H](Cc2c[nH]cn2)C(=O)N[C@@H](CC(C)C)C(=O)N(C)CC(=O)N[C@@H](Cc2c[nH]c3ccccc23)C(=O)N[C@@H](CO)C(=O)N[C@@H](Cc2c[nH]c3ccccc23)C(=O)N1C
# notes: macrocyclic peptide, Formula I series; also called Compound 28
# B5: Compound No. 67 (peptide)
# peptide: FANPHLGWSWFXRCG
# HELM: PEPTIDE1{[O=C(C[*:3])[*:2]].F.[meA].N.P.H.L.[Sar].W.S.W.[meF].[CCCC[C@@H](C(=O)[*:2])N(C)[*:1]].R.C.G.[am]}$PEPTIDE1,PEPTIDE1,1:R3-15:R3$$$V2.0
# SMILES: CCCC[C@H]1C(=O)N[C@@H](CCCNC(=N)N)C(=O)N[C@H](C(=O)NCC(N)=O)CSCC(=O)N[C@@H](Cc2ccccc2)C(=O)N(C)[C@@H](C)C(=O)N[C@@H](CC(N)=O)C(=O)N2CCC[C@H]2C(=O)N[C@@H](Cc2c[nH]cn2)C(=O)N[C@@H](CC(C)C)C(=O)N(C)CC(=O)N[C@@H](Cc2c[nH]c3ccccc23)C(=O)N[C@@H](CO)C(=O)N[C@@H](Cc2c[nH]c3ccccc23)C(=O)N(C)[C@@H](Cc2ccccc2)C(=O)N1C
# notes: macrocyclic peptide, Formula I series; also called Compound 67
# B6: Compound No. 65 (peptide)
# peptide: FANPHLGWSWLXRCG
# HELM: PEPTIDE1{[O=C(C[*:3])[*:2]].F.[meA].N.P.H.L.[Sar].W.S.W.[meL].[CCCC[C@@H](C(=O)[*:2])N(C)[*:1]].R.C.G.[am]}$PEPTIDE1,PEPTIDE1,1:R3-15:R3$$$V2.0
# SMILES: CCCC[C@H]1C(=O)N[C@@H](CCCNC(=N)N)C(=O)N[C@H](C(=O)NCC(N)=O)CSCC(=O)N[C@@H](Cc2ccccc2)C(=O)N(C)[C@@H](C)C(=O)N[C@@H](CC(N)=O)C(=O)N2CCC[C@H]2C(=O)N[C@@H](Cc2c[nH]cn2)C(=O)N[C@@H](CC(C)C)C(=O)N(C)CC(=O)N[C@@H](Cc2c[nH]c3ccccc23)C(=O)N[C@@H](CO)C(=O)N[C@@H](Cc2c[nH]c3ccccc23)C(=O)N(C)[C@@H](CC(C)C)C(=O)N1C
# notes: macrocyclic peptide, Formula I series; also called Compound 65
# B7: Compound No. 19 (peptide)
# peptide: FANPHLGWSWAXRCG
# HELM: PEPTIDE1{[O=C(C[*:3])[*:2]].F.[meA].N.P.H.L.[Sar].W.S.W.[meA].[CCCC[C@@H](C(=O)[*:2])N(C)[*:1]].R.C.G.[am]}$PEPTIDE1,PEPTIDE1,1:R3-15:R3$$$V2.0
# SMILES: CCCC[C@H]1C(=O)N[C@@H](CCCNC(=N)N)C(=O)N[C@H](C(=O)NCC(N)=O)CSCC(=O)N[C@@H](Cc2ccccc2)C(=O)N(C)[C@@H](C)C(=O)N[C@@H](CC(N)=O)C(=O)N2CCC[C@H]2C(=O)N[C@@H](Cc2c[nH]cn2)C(=O)N[C@@H](CC(C)C)C(=O)N(C)CC(=O)N[C@@H](Cc2c[nH]c3ccccc23)C(=O)N[C@@H](CO)C(=O)N[C@@H](Cc2c[nH]c3ccccc23)C(=O)N(C)[C@@H](C)C(=O)N1C
# notes: macrocyclic peptide, Formula I series; also called Compound 19
# B8: Compound No. 43 (peptide)
# peptide: {CH2CO}-F[NMeA]GPHL[Sar]WSW[NMeNle][NMeNle]RCG-NH2
# modifications: thioether N-14
# SMILES: CCCC[C@H]1C(=O)N(C)[C@@H](CCCC)C(=O)N[C@@H](CCCNC(=N)N)C(=O)N[C@H](C(=O)NCC(N)=O)CSCC(=O)N[C@@H](Cc2ccccc2)C(=O)N(C)[C@@H](C)C(=O)NCC(=O)N2CCC[C@H]2C(=O)N[C@@H](Cc2c[nH]cn2)C(=O)N[C@@H](CC(C)C)C(=O)N(C)CC(=O)N[C@@H](Cc2c[nH]c3ccccc23)C(=O)N[C@@H](CO)C(=O)N[C@@H](Cc2c[nH]c3ccccc23)C(=O)N1C
# notes: macrocyclic peptide, Formula I series; also called Compound 43
# B9: Compound No. 51 (peptide)
# peptide: {CH2CO}-F[NMeA]NPHD[Sar]WSW[NMeNle][NMeNle]RCG-NH2
# modifications: thioether N-14
# SMILES: CCCC[C@H]1C(=O)N(C)[C@@H](CCCC)C(=O)N[C@@H](CCCNC(=N)N)C(=O)N[C@H](C(=O)NCC(N)=O)CSCC(=O)N[C@@H](Cc2ccccc2)C(=O)N(C)[C@@H](C)C(=O)N[C@@H](CC(N)=O)C(=O)N2CCC[C@H]2C(=O)N[C@@H](Cc2c[nH]cn2)C(=O)N[C@@H](CC(=O)O)C(=O)N(C)CC(=O)N[C@@H](Cc2c[nH]c3ccccc23)C(=O)N[C@@H](CO)C(=O)N[C@@H](Cc2c[nH]c3ccccc23)C(=O)N1C
# notes: macrocyclic peptide, Formula I series; also called Compound 51
# B10: Compound No. 55 (peptide)
# peptide: {CH2CO}-F[NMeA]NPHLPWSW[NMeNle][NMeNle]RCG-NH2
# modifications: thioether N-14
# SMILES: CCCC[C@H]1C(=O)N(C)[C@@H](CCCC)C(=O)N[C@@H](CCCNC(=N)N)C(=O)N[C@H](C(=O)NCC(N)=O)CSCC(=O)N[C@@H](Cc2ccccc2)C(=O)N(C)[C@@H](C)C(=O)N[C@@H](CC(N)=O)C(=O)N2CCC[C@H]2C(=O)N[C@@H](Cc2c[nH]cn2)C(=O)N[C@@H](CC(C)C)C(=O)N2CCC[C@H]2C(=O)N[C@@H](Cc2c[nH]c3ccccc23)C(=O)N[C@@H](CO)C(=O)N[C@@H](Cc2c[nH]c3ccccc23)C(=O)N1C
# notes: macrocyclic peptide, Formula I series; also called Compound 55
# B11: Compound No. 53 (peptide)
# peptide: {CH2CO}-F[NMeA]NPHLHWSW[NMeNle][NMeNle]RCG-NH2
# modifications: thioether N-14
# SMILES: CCCC[C@H]1C(=O)N(C)[C@@H](CCCC)C(=O)N[C@@H](CCCNC(=N)N)C(=O)N[C@H](C(=O)NCC(N)=O)CSCC(=O)N[C@@H](Cc2ccccc2)C(=O)N(C)[C@@H](C)C(=O)N[C@@H](CC(N)=O)C(=O)N2CCC[C@H]2C(=O)N[C@@H](Cc2c[nH]cn2)C(=O)N[C@@H](CC(C)C)C(=O)N[C@@H](Cc2c[nH]cn2)C(=O)N[C@@H](Cc2c[nH]c3ccccc23)C(=O)N[C@@H](CO)C(=O)N[C@@H](Cc2c[nH]c3ccccc23)C(=O)N1C
# notes: macrocyclic peptide, Formula I series; also called Compound 53
# B12: Compound No. 61 (peptide)
# peptide: {CH2CO}-F[NMeA]NPHL[Sar]WSM[NMeNle][NMeNle]RCG-NH2
# modifications: thioether N-14
# SMILES: CCCC[C@H]1C(=O)N(C)[C@@H](CCCC)C(=O)N[C@@H](CCCNC(=N)N)C(=O)N[C@H](C(=O)NCC(N)=O)CSCC(=O)N[C@@H](Cc2ccccc2)C(=O)N(C)[C@@H](C)C(=O)N[C@@H](CC(N)=O)C(=O)N2CCC[C@H]2C(=O)N[C@@H](Cc2c[nH]cn2)C(=O)N[C@@H](CC(C)C)C(=O)N(C)CC(=O)N[C@@H](Cc2c[nH]c3ccccc23)C(=O)N[C@@H](CO)C(=O)N[C@@H](CCSC)C(=O)N1C
# notes: macrocyclic peptide, Formula I series; also called Compound 61
# B13: Compound No. 54 (peptide)
# peptide: {CH2CO}-F[NMeA]NPHLRWSW[NMeNle][NMeNle]RCG-NH2
# modifications: thioether N-14
# SMILES: CCCC[C@H]1C(=O)N(C)[C@@H](CCCC)C(=O)N[C@@H](CCCNC(=N)N)C(=O)N[C@H](C(=O)NCC(N)=O)CSCC(=O)N[C@@H](Cc2ccccc2)C(=O)N(C)[C@@H](C)C(=O)N[C@@H](CC(N)=O)C(=O)N2CCC[C@H]2C(=O)N[C@@H](Cc2c[nH]cn2)C(=O)N[C@@H](CC(C)C)C(=O)N[C@@H](CCCNC(=N)N)C(=O)N[C@@H](Cc2c[nH]c3ccccc23)C(=O)N[C@@H](CO)C(=O)N[C@@H](Cc2c[nH]c3ccccc23)C(=O)N1C
# notes: macrocyclic peptide, Formula I series; also called Compound 54
# B14: Compound No. 62 (peptide)
# peptide: {CH2CO}-F[NMeA]NPHL[Sar]WSI[NMeNle][NMeNle]RCG-NH2
# modifications: thioether N-14
# SMILES: CCCC[C@H]1C(=O)N(C)[C@@H](CCCC)C(=O)N[C@@H](CCCNC(=N)N)C(=O)N[C@H](C(=O)NCC(N)=O)CSCC(=O)N[C@@H](Cc2ccccc2)C(=O)N(C)[C@@H](C)C(=O)N[C@@H](CC(N)=O)C(=O)N2CCC[C@H]2C(=O)N[C@@H](Cc2c[nH]cn2)C(=O)N[C@@H](CC(C)C)C(=O)N(C)CC(=O)N[C@@H](Cc2c[nH]c3ccccc23)C(=O)N[C@@H](CO)C(=O)N[C@@H]([C@@H](C)CC)C(=O)N1C
# notes: macrocyclic peptide, Formula I series; also called Compound 62
# Target: T1, human PD-L1 (human, UniProt Q9NZQ7 19-239, limits assumed)
# T1 construct: also called Hu PD-L1; hPD-L1
# Assay: cell binding assay, inhibition of Hu PD-L1/PD-1 binding
# T1 sequence (Q9NZQ7 19-239 limits assumed): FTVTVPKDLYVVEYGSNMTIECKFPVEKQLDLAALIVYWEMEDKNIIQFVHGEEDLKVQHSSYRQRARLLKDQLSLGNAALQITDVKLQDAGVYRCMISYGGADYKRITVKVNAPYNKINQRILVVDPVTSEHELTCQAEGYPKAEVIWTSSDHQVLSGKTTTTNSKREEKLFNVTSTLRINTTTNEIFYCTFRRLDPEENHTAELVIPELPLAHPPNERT
row,IC50 [nM],Binder
1,13,B1
2,8,B2
3,28,B3
4,82,B4
5,143,B5
6,258,B6
7,134,B7
8,5330,B8
9,118,B9
10,3,B10
11,47,B11
12,195,B12
13,68,B13
14,3410,B14
